Kd data for one molecule are collected here from paper PMC3044691 (2011).

In this test the target is monomeric sCD4 (D1D2). The test can be described thus: SPR.

B1: JR-FL gp120 (natural protein)
chain: not shown
For B1, the Kd (commonly the equilibrium constant for the complex coming apart) was found to be 12 nM.
